According to patent publication US20230035659A1, “Compositions and Methods for TTR Gene Editing and Treating ATTR Amyloidosis Comprising a Corticosteroid or Use Thereof” (Intellia Therapeutics, Inc., priority 2019, published 2023):
Strand notation (5' to 3'): a small letter for the sugar, then the base; units joined by * are phosphorothioate-linked, units joined directly phosphodiester-linked; [ ] holds rarer units or linkages, { } end groups; capitals alone tell only the bases. m = 2'-O-methyl; r = 2'-OH (RNA)

B1: G000502: TTR Cyno specific sgRNA modified sequence, SEQ ID NO: 114; guide sequence of CR000689; cross homologous between mouse and cyno (nucleic acid)
guide: mA*mC*mA*rCrArArArUrArCrCrArGrUrCrCrArGrCrGrGrUrUrUrUrArGrAmGmCmUmAmGmAmAmAmUmAmGmCrArArGrUrUrArArArArUrArArGrGrCrUrArGrUrCrCrGrUrUrArUrCrAmAmCmUmUmGmAmAmAmAmAmGmUmGmGmCmAmCmCmGmAmGmUmCmGmGmUmGmCmU*mU*mU*mU
B2: G000494: TTR sgRNA modified sequence, Human, SEQ ID NO: 101; guide sequence of CR003360 (nucleic acid)
guide: mG*mU*mG*rArGrUrCrUrGrGrArGrArGrCrUrGrCrArUrGrUrUrUrUrArGrAmGmCmUmAmGmAmAmAmUmAmGmCrArArGrUrUrArArArArUrArArGrGrCrUrArGrUrCrCrGrUrUrArUrCrAmAmCmUmUmGmAmAmAmAmAmGmUmGmGmCmAmCmCmGmAmGmUmCmGmGmUmGmCmU*mU*mU*mU
B3: G000499: TTR sgRNA modified sequence, Human, SEQ ID NO: 106; guide sequence of CR005303 (nucleic acid)
guide: mU*mG*mA*rArUrCrCrArArGrUrGrUrCrCrUrCrUrGrArGrUrUrUrUrArGrAmGmCmUmAmGmAmAmAmUmAmGmCrArArGrUrUrArArArArUrArArGrGrCrUrArGrUrCrCrGrUrUrArUrCrAmAmCmUmUmGmAmAmAmAmAmGmUmGmGmCmAmCmCmGmAmGmUmCmGmGmUmGmCmU*mU*mU*mU

Tests used:
mouse TTR = test: Serum mouse TTR (ELISA) after LNP dosing of mice with murine TTR; assay type: in vivo; details: wild type CD-1 mice; LNP 45:44:9:2, N:P 6; 1, 0.3, 0.1, 0.03, 0.01 mg/kg
Protocol: (§1) Unless otherwise noted, CD-1 female mice, ranging from 6-10 weeks of age were used in each study. Animals were weighed and grouped according to body weight for preparing dosing solutions based on group average weight. LNPs were dosed via the lateral tail vein in a volume of 0.2 mL per animal (approximately 10 mL per kilogram body weight). […] Body weight was measured at twenty-four hours post-administration, and animals were euthanized at various time points by exsanguination via cardiac puncture under isoflourane anesthesia. Blood was collected into serum separator tubes or into tubes containing buffered sodium citrate for plasma as described herein. […]
Blood was collected and the serum was isolated as indicated. The total mouse TTR serum levels were determined using a Mouse Prealbumin (Transthyretin) ELISA Kit (Aviva Systems Biology, Cat. OKIA00111); rat TTR serum levels were measured using a rat specific ELISA kit (Aviva Systems Biology catalog number OKIA00159); human TTR serum levels were measured using a human specific ELISA kit (Aviva Systems Biology catalog number OKIA00081); each according to manufacture's protocol. […] The absorbance of the contents was measured on the Spectramax M5 plate reader with analysis using SoftmaxPro version 7.0 software. […]

human TTR sequence = test: Liver editing (NGS) after LNP dosing of mice humanized with respect to the TTR gene; assay type: in vivo, mouse; details: LNP Formulation Numbers 1-5, 2 mg/kg total RNA, Cas9 mRNA SEQ ID NO: 2, 1:1 to guide
Protocol: as §1
Additional PCR was performed per the manufacturer's protocols (Illumina) to add chemistry for sequencing. […] The reads were aligned to a reference genome (e.g., the human reference genome (hg38), the cynomologus reference genome (mf5), the rat reference genome (rn6), or the mouse reference genome (mm10)) after eliminating those having low quality scores. The resulting files containing the reads were mapped to the reference genome (BAM files), where reads that overlapped the target region of interest were selected and the number of wild type reads versus the number of reads which contain an insertion, substitution, or deletion was calculated. […]

Molecule	serum mouse TTR levels, dose response (mouse TTR)	liver editing of the human TTR sequence (mean values) (human TTR sequence) [%]
B1	dose response	–
B2	–	~60
B3	–	~60
